Assay results reported in US12269897.

Assays:
[1] = target: hPCSK9(R215E), mmh-tagged (human, UniProt Q8NBP7 31-692); experiment: SPR, mAb captured, 25C
[2] = target: T1, Chimeric protein #3 (mPro-mCat-hC-term-mmh) (mouse; human); experiment: ELISA, mAb coated, 1.2 nM protein
T1 chain: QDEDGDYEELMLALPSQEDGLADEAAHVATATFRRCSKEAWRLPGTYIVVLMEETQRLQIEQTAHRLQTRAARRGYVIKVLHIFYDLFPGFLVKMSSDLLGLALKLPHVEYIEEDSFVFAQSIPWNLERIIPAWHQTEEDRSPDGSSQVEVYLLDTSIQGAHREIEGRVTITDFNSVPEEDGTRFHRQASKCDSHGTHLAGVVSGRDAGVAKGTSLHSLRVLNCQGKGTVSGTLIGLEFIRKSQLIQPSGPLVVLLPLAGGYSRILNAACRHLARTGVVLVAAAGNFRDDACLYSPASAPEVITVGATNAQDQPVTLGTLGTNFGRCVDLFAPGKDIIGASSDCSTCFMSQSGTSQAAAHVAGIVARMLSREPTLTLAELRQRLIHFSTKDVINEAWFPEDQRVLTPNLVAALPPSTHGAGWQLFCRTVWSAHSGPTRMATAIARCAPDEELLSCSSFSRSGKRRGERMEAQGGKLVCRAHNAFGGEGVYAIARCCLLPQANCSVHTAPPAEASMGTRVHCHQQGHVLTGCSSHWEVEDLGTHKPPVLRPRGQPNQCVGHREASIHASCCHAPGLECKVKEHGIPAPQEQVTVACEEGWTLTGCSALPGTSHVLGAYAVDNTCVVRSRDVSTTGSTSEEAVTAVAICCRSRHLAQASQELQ
Source text: After 1 hr binding at RT, the plate was washed and bound test protein detected using HRP-conjugated anti-myc polyclonal antibody (++=OD>1.0; +=OD 0.4-1.0; −=OD<0.4).

B1: H1M300N, fully human version (antibody, V domains shown)
VH: EMQLVESGGGLVQPGGSLRLSCAASGFTFSSHWMKWVRQAPGKGLEWVANINQDGSEKYYVDSVKGRFTISRDNAKNSLFLQMNSLRAEDTAVYYCARDIVLMVYDMDYYYYGMDVWGQGTTVTVSS
VL: not shown
notes: Fully human mAb made in CHO cells
T1/2 [1]: 1.28 h

B2: H1M300 (antibody, V domains shown)
VH: B1 VH
VL: not shown
notes: Hybridoma-derived chimeric antibody (human variable, mouse constant)
OD [2]: < 0.4 od
